Assay results published in article PMC5794992.

Target: BraA.Gα1 (Gα subunit of B. rapa), GAL4 DNA-binding domain fusion (Brassica rapa)
Sequence (P18064 other isoform, or with tags, fused parts or gaps): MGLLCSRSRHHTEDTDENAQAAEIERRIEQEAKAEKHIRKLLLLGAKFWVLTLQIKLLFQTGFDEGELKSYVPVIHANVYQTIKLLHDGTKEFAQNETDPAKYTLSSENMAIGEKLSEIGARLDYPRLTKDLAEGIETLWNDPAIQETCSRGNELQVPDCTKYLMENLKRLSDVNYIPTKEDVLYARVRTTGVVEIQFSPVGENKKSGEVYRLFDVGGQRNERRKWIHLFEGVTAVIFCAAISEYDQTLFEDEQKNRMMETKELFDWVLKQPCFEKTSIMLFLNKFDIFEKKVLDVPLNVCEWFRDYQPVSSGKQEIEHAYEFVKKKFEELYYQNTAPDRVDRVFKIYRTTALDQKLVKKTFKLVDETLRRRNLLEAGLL

Substance | Km of steady state Pi release (ENZchek) from 1 μM GTP-loaded BraA.Gα1 with 0.1–2.0 μM purified RGS-domain of BraA.RGS1 (His-tagged proteins from E. coli) | Km of steady state Pi release (ENZchek) from 1 μM GTP-loaded BraA.Gα1 with 0.1–2.0 μM purified RGS-domain of BraA.RGS2 (His-tagged proteins from E. coli)
RGS-domain of BraA.RGS1 (C-terminal cytosolic domain containing the RGS-box), GAL4 activation domain fusion (domain or fragment) | 0.244 | –
RGS-domain of BraA.RGS2 (C-terminal cytosolic domain containing the RGS-box), GAL4 activation domain fusion (domain or fragment) | – | 0.311
